# Data as given in patent publication US20030124602A1 (Novartis, published 2003).
# B1: GAL4 DNA binding domain fusion of human PKB alpha amino acids 411-480 (pGBT-CT) (other, yeast;human, UniProt P04386 1-147, looked up)
# chain: MKLLSSIEQACDICRLKKLKCSKEKPKCAKCLKNNWECRYSPKTKRSPLTRAHLTEVESRLERLEQLFLLIFPREDLDMILKMDSLQDIKALLTGLFVQDNVNKDAVTDRLASVETDMPLTLRQHRISATSSSEESSNKGQRQLTVSIVWQHVYEKKLSPPFKPQVTSETDTRYFDEEFTAQMITITPPDQDDSMECVDSERRPHFPQFSYSASGTA
# notes: range 1-147;range 411-480
# B2: Gal4-AD-CTMP fusion protein encoded by pGADGH.CTMP (CTMPL fused to the GAL4 transcriptional activation domain) (other, not shown: small tags and cut ends)
# chain: NSARARASAAPRPGAMLRSCAARLRTLGALCRPPVGRRLPGSEPRPELRSFSSEEVILKDCSVPNPSWNKDLRLLFDQFMKKCEDGSWKRLPSYKRTPTEWIQDFKTHFLDPKLMKEEQMSQAQLFTRSFDDGLGFEYVMFYNDIEKRMVCLFQGGPYLEGPPGFIHGGAIATMIDATVGMCAMMAGGIVMTANLNINYKRPIPLCSVVMINSQLDKVEGRKFFVSCNVQSVDEKTLYSEATSLFIKLNPAKSLT
# notes: Yeast two-hybrid prey recovered from a HeLa cDNA library; also called this clone
# B3: human Lamin C (control plasmid pLAM5') (other, UniProt P02545-2 66-230, looked up)
# chain: SEEVVSREVSGIKAAYEAELGDARKTLDSVAKERARLQLELSKVREEFKELKARNTKKEGDLIAAQARLKDLEALLNSKEAALSTALSEKRTLEGELHDLRGQVAKLEAALGEAKKQLQDEMLRRVDAENRLQTMKEELDFQKNIYSEELRETKRRHETRLVEID
# notes: Two-hybrid control protein; Lamin C is an isoform of the LMNA entry
# Key:
# [1] = molecular target: B2; assay: yeast two-hybrid, His auxotrophy and lacZ reporters
# [2] = molecular target: T1, GAL4 DNA binding domain fusion of human PKB alpha amino acids 1-480 (pGBT-PH-KIN-CT, full-length PKB) (yeast; human, UniProt P04386 1-147; P31749 1-480); assay: as above
# T1 construct: range 1-147;range 1-480
# [3] = molecular target: T2, GAL4 DNA binding domain fusion of human PKB alpha amino acids 147-480 (pGBT-KIN-CT) (yeast; human, UniProt P04386 1-147; P31749 147-480); assay: as above
# T2 construct: range 1-147;range 147-480; Bait of the library screen; also called deltaPH
# [4] = molecular target: T1, GAL4 DNA binding domain fusion of human …; assay: yeast two-hybrid
# [5] = molecular target: B1; assay: yeast two-hybrid
# [6] = molecular target: T2, GAL4 DNA binding domain fusion of human …; assay: yeast two-hybrid
binder,measurement,setting,value
B1,binding result,[1],binds
B2,binding result,[2],binds
same,binding result,[3],binds
B3,binding result,[4],no binding
same,binding result,[5],no binding
same,binding result,[6],no binding
